Measured values as given in paper PMC2853134.

T1: TFIIB (UniProt P29055 1-345)
T1 sequence: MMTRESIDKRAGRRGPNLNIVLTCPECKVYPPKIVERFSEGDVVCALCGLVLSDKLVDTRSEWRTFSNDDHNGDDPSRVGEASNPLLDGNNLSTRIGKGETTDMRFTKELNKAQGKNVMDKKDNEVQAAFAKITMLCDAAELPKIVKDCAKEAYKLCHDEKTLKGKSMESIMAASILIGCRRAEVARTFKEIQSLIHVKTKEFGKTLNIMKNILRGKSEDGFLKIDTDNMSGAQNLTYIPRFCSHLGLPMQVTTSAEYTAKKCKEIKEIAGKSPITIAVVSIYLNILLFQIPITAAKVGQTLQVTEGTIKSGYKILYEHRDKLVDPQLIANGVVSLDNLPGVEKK

B1: B4-Del3 (structured_RNA)
RNA: GGGAGAAUUCAACUGCCAUCUAGGCAAAGAGCUAAUGUAGGAUGCUGGGGUAGUCCAGCCCUAGAAUAAGCGCUAGUACUACAAGCU
B2: MiniB4 (structured_RNA)
RNA: GGGAGCUAAUGUAGGAUGCUGGGGUAGUCCAGCCCUAGAAUAAGCGCUAGUACUACAAGCU
B3: B4-Del5 (structured_RNA)
RNA: GGGAGCUAAUGUAGGAUGCUGGGGUAGUCCAGCCCUAGAAUAAGCGCUAGUACUACAAGCUUCUGGAGCUCGGU

Each binder was assayed against T1, TFIIB (assay: EMSA).

Binding result, binds:
B1
B2
B3
